Assay: label from the status in PepcDB records

Row | Sequence | protein production
1 | MVMLNTHVVECLQACGRCAAACDYCASSCLREGHGADMARCIALDLDCAAACRLCAAMMARESEFSTHMCTLCARICEVCGDECARHEPRHCQECATACHACASACRAMARPLEHHHHHH | not failed
2 | MDRTQFTKIFTRYYMRSTSLGIIFTLFACAIRGVNLVVYLPYVLSASTCFTYLWASRTFTLEQKHQSVVIALILGYTLTFYLYFFLGGHFLFSSLVTINLLLTMVEFGVFWSFFTYALSMTFCFYIDLITAGNDPFKLHALKEFFIQSTFLFLFNLFIYKGLRSIECYWHGIWQKQYEQVEKLERLLEIDELTGCYSRFKGNQLIEQQIQRAQPFTLLYIDLDGFKAVNDEFGHDAGDKVLQITAQRILHLLDDGQFATRIGGDEFILCLPNIEDTKELEQFQSLLHHACSAPIFIHFQNVHIGLSVGMARFPHEGSCSDSLIQHADQMMYLTKRSRT | failed
3 | MGKSIPVKTGLRGASAAVAGFIKSSKPIRPISSMDSSDKDSSSTTTTSETTRRFVPLSSVVSDCAKRWFKDTLEEAKAGNITMQVLLGQMYYSGYGVPKDARKVSSLFPPFQSLLFQVLGYNASDSDSESD | failed
4 | MFIKGVILSSYGVNGYARVKSISNNFCDFINLKNNKVLLKKSNSSSVEVKVVDVNIKGNSLFLKFEEIDTPEAVRPLIGFELWVDDSLASSLKEGEYYLGKLIGYAIVNNNKKLGEVVAFFEYLNSVFLEVRVGIKFFFIPFLSIYIGDINTQEKTIELKVLDLLKLEHHHHHH | failed
5 | MTKIIPVASGKGGVGKTSFVANVGYKLSSLGKTVILVDLDLGGSNLHTCLGVKNKGVGIGSFINKKSKSFSDLVCKTSYDKLYLIPGDALYTGTANLPFSIKKKIIESIQKDLIADFIFLDLGSGTSYNTIDFYLASYSGVIVTIPETPSILNAYSFLKNALYRLLYLGFPQKSPERDYIGNFFKDKIEGTNLGFKDLVVGIELISLSSSLKVKRMMNNFYPRVVLNRIETSEEIAMCENLINVVKNNINIPIEFIGFVPFAKSFREAINNRVPFIDFEKNSKLNKYFEFIAGNLIKSP | failed
6 | MTTAQMSVYFFLQAAAILLVCRLVGMLAKRLGQPQVVGEMIAGVMLGPSLFGLLAPGAQAALFPKQTMDVLYVFAQFGVGMYMFLVGTDFRSDHFRARYRSAMSVSLAGIAVPFLLAFAMCPWLINVEGLFSEKAKLMEASLFLGAAIAITAFPMLARIIHERGLATSPLGTLALTAGAFDDASAWCILAVVLASFGGSWGSAYLAIGGGIGYAVFMIFVGRHLLKRLADHVVPGQPLSNSVLAVVLILFCVSAWAMDAIGIHAVFGGFLLGVCLPRGALTEKLREMLQPFVVVLLLPMFFTYSGLKTQLSVLLQPQIMLAGVAILAASFIGKGVACWAAARTTGENNRDAMAIGALMNARGLMELIIINIGLQAGVIEQGLFSVLVLMAILSTLMATPLFNWIMRRHAHVSDAVPSLQSR | failed
7 | YYNPVRYPERTKERRDLVLRLLMQQNMLTSQQYEQAVSRPLDTQSKPRIASRQPAYFQQLNIELKEKVGDRFKAETGL | failed
8 | MKVSILIITYNHSHFIAQAIESVLMQKVKFEYEIVIGEDSSTDNTRQILLDYQKQYSDKIRLLLPEKNLGMHRNFVNTLQACRGEYIAILEGDDYWIADDKLQKQVEFLDENPDFTICFHNVMVFHEDNQYQPYIFLHNQPTVSYIEDLLIRNFISTPSVMYRNGLVESIPTWFYEQGMGDWIFHILNAQYGKIGYIDEVMSAYRIHVQGVWSSKSRDWQLKETIRMLDTIKSNVNVRYAEIIDRAVQFYSEQLLYLVPESQEVTPVLNTSLPNYLQIKDINFIAFPDWNQPEELLYQSLYYAIKLFLTHPENNKIALFIDTTDISEEDADIYISSTLMNLMLEEELEESHKINVFLIGELDQIQWQTLLSFLKARIVLPSENLDAILASGTAIIPCLTVEQLIEFDLTFIESAKPYKLNIGCGNVRFHGWINIDIEQNYKTVDLVCDARQKLPFNDNSCDLIYNEHFLEHLTLEEGLFFLKECHRILKPEGILRIAMPSLEYVVQKYMSDDWRNQEWLNYPEYQFIKTRAEMLNIAMRWWGHQWLYDTEELHRRLTESGYINVQNFAWGKSNTPDLRNRETRVDSILICESQALK | failed
9 | MAATTNFTKSMLFPFSHVSGNASLNSQRRTWPKQYKSKNGYRSLRVNGLFGGGNKDNNSEDGQSKAGIFGNMQNMYETVKKAQMVVQVEAVRVQKELAAAEFDGYCAGELVKVTLSGNQQPIRTDITEAAMELGSEKLSQLVTEAYKDAHAKSVVAMKERMSDLAQSLGMPPGLSEGMK | failed
10 | RDRSTIARIQFRLPDGSSFTNQFPSDAPLEEARQFAAQTVGNTYGNFSLATMFPRREFTREDYKRRLLDLELAPSASVVLLPAGRPATSIVHSSSGDILMID | not failed
11 | MAGHSHWAQIKHKKAKVDAQRGKLFSKLIREIIVATRLGGPNPEFNPRLRTAIEQAKKANMPWENIERAIKKGAGELEGEQFEEVIYEGYAPGGVAVMVLATTDNRNRTTSEVRHVFTKHGGNLGASGCVSYLFERKGYIEVPAKEVSEEELLEKAIEVGAEDVQPGEEVHIIYTVPEELYEVKENLEKLGVPIEKAQITWKPISTVQINDEETAQKVIKLLNALEELDDVQQVIANFEIPEEILQKVG | not failed
12 | SEQSSPGFRQTHLQDLSEATQDVKEENHYLTPRSVLLELDNIIASSDSGESIETDGPDQVSGRIECHYEPMESYFFKETSHESVDSSKEEPQTLPETQDGDLHLQEQGSGIDWCLSPADVEAQTTNDQKGSASLTVVQLSILINNIPDESQVEKLNVFLSPPDVINYLALTEATGRICVSQWEGPRRLGCIFCHGDHLLAVNDLKPQSLEEVSLFLTRSIQKEKLKLTIGRIPNSETFHAASCMCPSKCQSAAPSQLDKPRLNRAPKRSPAIKKSQQKGARE | not failed
13 | MIFVLLICPLFIFIVSVIGTRKTKTYYVMPIVTFASFLIIGVIAFTPKFFFWVGMYSIFSFIVSYMTLLFVKGYEVAENAK | failed
14 | MELLSIVIFGLLIVVSPSADFVLVFKNSAMHSRKAGMLTAIGIGAGVCVHISYSIIGISQLIANNAGLFSLVKYVGAAYLIYIGIAGLLSAKLTLDYGTQLIKPVENRKYIMQGFLCNVLNPKTMIFFLSVFSQLISSHSDSLAFVISYGVYIAVLHGIWFCIVAYLVTSAKATRVLKRFGHRINQACGVGLITFGVILSTND | failed
15 | MSELARIVPDSEKISHILIEQGRKITFYSYFSNTFVLGIIAYILVDNTVALDKNSLFFVKTLPFRKKDISLSFMLFKFVIMILLYELVMIISTPAIKLVTTVPIEYVIFFIVQHLFYLVVIGVIEFIHCLFTFFLKRRVKQINSLKVIGDSLLMIFATFYFFDFRYGLELFLANQLWSISYMIPITFFLIVVCLMLISIGLLRLISILENQMSQHSKYIYIPFLNKVIFRYKANWYFISFTTVVMLVIFFQSGLRTMLFILTTVMAFSGVLLLSYGDITADFRKQYDLLRIKIRNEWLSQLLLVIMLAMPLLLLCFWGFGELAQLITALSLSLVAIILGYVFPKSQGSLNETTSLLLLFIVFVLVSLLTNRSFGWLILIVLVLLHLLVIKKVRNEKE | failed
16 | MLNGDVTLRAWTNIWMFLIYGLAIFLEPIHNNIRHLPILVRGGIYSTLIIISEYITGSFLCFMLGTCPWHYSSGPFTIQGITRLDYFPYWLIAGLLFEKLHDALLKISINVEQSSS | failed
17 | MRAKITYAVTAAVLVVYFVLVGSRGVLLIQNGTLVTVTFGVAVLILPVIGVWFLWKNTQFVRKANALAAELDAEGGLPVDELRRTPGGRIDRDSADEVFARRKAETEDAPGDWRSWFRLAVAYHDARDTPRARKAMQRAIALHEGRPVEA | failed
18 | SVICCAAVNCSNRQGKGEKRAVSFHRFPLKDSKRLIQWLKAVQRDNWTPTKYSFLCSEHFTKDSFSKRLEDQHRLLKPTAVPSIFHLTEKKRGAGGHGRTRRKDASKATGGVRGHSSAATGRGAAGWSPSSSGNPMAKPESRRLKQAALQGEATPRAAQEAASQEQAQQALERTPGDGLATMVAGSQGKAEASATDAGDESATSSIEGGVTDKSGISMDDFTPPGSGACKFIGSLHSYSFSSKHTRERPSVPREPIDRKRLKKDVEPSCSGSSLGPDKGLAQSPPSSSLTATPQKPSQSPSAPPADVTPKPATEAVQSEHSDASPMSINEVILSASGACKLIDSLHSYCFSSRQNKSQVCCLREQVEKKNGELKSLRQRVSRSDSQVRKLQEKLDELRRVSVPYPSSLLSPSREPPKMNPVVEPLSWMLGTWLSDPPGAGTYPTLQPFQYLEEVHISHVGQPMLNFSFNSFHPDTRKPMHRECGFIRLKPDTNKVAFVSAQNTGVVEVEEGEVNGQELCIASHSIARISFAKEPHVEQITRKFRLNSEGKLEQTVSMATTTQPMTQHLHVTYKKVTP | not failed
19 | MSIIEDNKISFVIPTINEEKTIGSVIDGIHENFPNAEIILVDTNSTDKTKEIAKSKGATVIEEPRKGYGRAYQTGIPAAKGDIIVCMDGDGTYPTDIVKPLIEILILDKVDFISCDRITFRTSTNYTTLHYVGNMVLNLTIRILFKVRMVDSQSGMWIFRSELYKKMKNLGYGMSFSQNIKIEAVRHGVFIEIPIRYGVRITKPKLKTWHDGFHNLFALFIKRVSELEHHHHHH | not failed
20 | MAWMFLLLAAAFEVTFAMGMKYAEGFTRPWPSLLTVVAAVGGIYFLTLAMRELPVSVAYPIWTAIGSLGTVLLGCLLLGESLTAVKLVSVGLIVAGVAGLK | failed
21 | MGNVGLLFVGAVLFMNGLLLLGKVDAKAAAVFNLFIGALQVLTPTYLIFTANGDPMKILAASGIYLFGFTYLYVGIGLLTGLDSTGVGYYSLFVAVAALGYSFVNFRLFKDYPFGVIWLYWAYLWFLFFLLLGLKKDDLKIYTGWVTAIEGWVTGAIPAGLLLSGYWKHPTETAIALAVFGVVVFVGLWPRTHRTPRPTSAAPRTGGVGAPT | failed
22 | MDGSNVTSFVVEEPTNISTGRNASVGNAHRQIPIVHWVIMSISPVGFVENGILLWFLCFRMRRNPFTVYITHLSIADISLLFCIFILSIDYALDYELSSGHYYTIVTLSVTFLFGYNTGLYLLTAISVERCLSVLYPIWYRCHRPKYQSALVCALLWALSCLVTTMEYVMCIDREEESHSRNDCRAVIIFIAILSFLVFTPLMLVSSTILVVKIRKNTWASHSSKLYIVIMVTIIIFLIFAMPMRLLYLLYYEYWSTFGNLHHISLLFSTINSSANPFIYFFVGSSKKKRFKESLKVVLTRAFKDEMQPRRQKDNCNTVTVETVV | failed
23 | MVEQLVSNAAILLAGFYIISLVYKEPITKELSTNKKIVIGIWAGLLGFALMVFGIPISNNVIVDLRHIPIIMVGFYGGPIPAIVSAIIISASRFLLSVNSAAIMAAVVMMLIGIITAIFGKRIEKFKIWGVFILNIIACSFVVINLHLILARESHFWINMTVFVLIALVIGAVSAGLMSNMIKSKQLFQKYEQDSTLDYLTKLSNVRQFDEKINHVMDAGSRQVTLMLIDIDYFKNINDTYGHDAGDAILKQLAIILKRNTSDGSEAFRNGGEEFSIVLLDCPIEKGNFFAEQVRRETEEYDFMIPSGQVVKITISVGVSSSKDGANTSEGLFKSADEALYKAKLTGRNQVCIADGN | failed
24 | MKPSFKKLLLLFSIITILSIACTPHAKASGRSWKSWFIEQYFWLKRDKSYYKVQDESSFQKYLNASREQSDKGYYLDPNSVNGGLVQERLFDMQVYSWNDNGKANQKTIFYLAGGSYLNNPTPYHISMLKTLSTSLDAKIILPIYPKTPRYTYDYAIPRLVNLYRHFHEKNANLTLMGDSAGGGLALGLAHALSHQSGQEAIPQPKNIILLSPWLDVTMKHPEIPKYEDTDPILSAWGLARVGEIWANGSNNTNHTYVSPKNAPATKLAPITLFTGTREIFFPDIRDYAAQLQAANHPVNYIAQEGMNHVYPIYPIEEAKTAQYQMIDIINKTP | failed
25 | SINKVLDHFRRKGINQHVQNGYHGIVMNNFECEPAFYTCVEVTAGNRLFYHIVDSDEVSTKILMEFNKMNLPGEVTFLPLNKLDVRDTAYPETNDAIPMISKLRYNPRFDKAFKHVFGKTLICRSMEVSTQLARAFTMDCITLEGDQVSHRGALTGGYYDTRKSRLELQKDVRKAEEELGELEA | failed

Reference: a protein production outcome set (Wang et al. 2014)
